The text below walks through data of article PMC6240786.

Assay [1] addresses Streptomyces clavuligerus cucumene synthase, wild-type (Streptomyces clavuligerus). Kind of assay: crystal structure.
The target of assay [2] is T181N cucumene synthase (Streptomyces clavuligerus). Kind of assay: crystal structure.

For orientation: stoichiometry N means a count of units in the complex or per binding partner. In assay [1], “Streptomyces clavuligerus cucumene synthase, wild-type (enzyme)” registered a stoichiometry N of 2.

In assay [2], T181N cucumene synthase (enzyme) had a stoichiometry N of 2.
